Key:
pTarget = experiment: Plasmid curing assay; type: cell-based, Staphylococcus aureus; details: but not pCRISPR
Method: To assess CARD1's ability to promote plasmid curing under low transcription conditions, a plasmid curing assay was performed, by adapting a known approach. Briefly, overnight cultures of S. aureus cells harbouring pTarget and a pCRISPR containing either Csm6, dCsm6, or CARD1 were diluted to exactly OD 0.15 in tryptic soy broth with 10 ug/ml chloramphenicol. After removing a cell aliquot for the 0 timepoint, aTc was added to a concentration of 9.3 ng/ml (FIG. 4e) or 125 ng/ml (FIG. 4f) and the cells were incubated at 37° C., with further aliquots taken at the indicated times. The cells were then lysed, and the plasmid DNA isolated using a QIAprep Miniprep kit (Qiagen) according to the manufacturer's protocol (Qiagen). 400 ng of plasmid was then linearized using BamHI-HF (New England Biolabs), which cuts both pTarget and pCRISPR once, followed by visualization by gel electrophoresis.

phage Φ12γ3 [1] = experiment: Liquid anti-phage infection, PFU counts over time; type: cell-based, Staphylococcus aureus RN4220
Method: To obtain CFU and PFU counts over time from cultures infected with phage, RN4220 cultures harbouring various pCRISPRs were launched overnight, diluted 1:100, and outgrown for about one hour. Cells were then infected with phage Φ12γ3 at an MOI of 10, and an aliquot was taken shortly after to obtain PFUs at time 0. The cultures were then incubated further, with aliquots taken at 1 and 4 hours.

phage Φ12γ3 [2] = experiment: In vivo anti-phage immunity growth curves (Φ12γ3); type: cell-based, Staphylococcus aureus RN4220
Method: For in vivo anti-phage immunity, cells harbouring various pCRISPRs were launched in triplicate overnight, diluted 1:100, outgrown for about an hour, and normalized for OD. Cells were seeded into a 96 well plate. Phage Φ12γ3 (25) […] was added at the appropriate multiplicity of infection, and OD measurements were taken every 10 minutes.

[3] = tested on: circular ΦX174 and M13 ssDNA; experiment: In vitro DNA cleavage assay, agarose gel; type: biochemical
Method: (§1) The reactions were done in a reaction buffer (20 mM Tris-HCl, pH 7.5, 150 mM NaCl, 1 mM DTT, and 5 mM MnCl2, unless otherwise stated, with 250 nM CARD1 and 2.5 uM of cA4, with 2 μg M13 ssDNA (NEB) (FIG. 1b), 500 ng of non-linearized and linearized ΦX174 dsDNA (NEB) (FIGS. 1d, e, respectively) and 2 μg ΦX174 ssDNA (NEB) (FIG. 1a). cA4 and cA6 was obtained from Biolog Life Science Institute GmbH & Co. KG (Bremen, Germany). The reaction products were visualized by agarose gel electrophoresis. For the RNA oligo cleavage assay, 250 nM of a Cy3-labelled RNA oligo was added to the reaction. The reaction products were run on Mini-PROTEAN TBE-Urea precast gel (Bio-Rad), and visualized on a TYPHOON IMAGE SCANNER. For degradation of ssRNA or dsRNA ladders, 1 ug of either ssRNA ladder (NEB) or dsRNA ladder (NEB) was digested. The reaction products were visualized by agarose gel electrophoresis. At the indicated timepoints, all reaction were stopped by the addition of 25 mM of EDTA.

[4] = tested on: recA, lexA, uvrA and umuC transcripts; experiment: RT-qPCR of SOS-induced genes; type: cell-based, Staphylococcus aureus RN4220; details: after aTc induction; compared to d-CARD1; cells expressing Cas10HD
Method: Cells carrying pTarget and a pCRISPR containing either CARD1 or dCARD1 were grown overnight in triplicate, diluted 1/100 into fresh BHI with 10 ug/ml of chloramphenicol and outgrown for an hour. The cells were then diluted to an OD of 0.1. To induce targeting, aTc was added to a final concentration of 250 ng/ml. The cells were incubated with shaking for 20 minutes before being spun down at 6000×g for 5 minutes, and then lysed in PBS with 1 mg/ml of lysostaphin and 2 mg/ml of lysozyme for 10 minutes at 37° C. RNA was purified using Direct-zol RNA miniprep kit (Zymo Research) according to the manufacturer's protocol, followed by DNA depletion using TURBO DNA-free kit (Invitrogen) according to the manufacturer's protocol. To produce cDNA, approximately 2 ug of DNA-depleted RNA was treated using the SuperScript IV Reverse Transcriptase kit (Invitrogen) according to the manufacturer's protocol and random hexamer primers. The RT-qPCR reaction was performed using Fast SYBR Green Master Mix (Life Technologies) with an input of about 100 ng cDNA, in biological triplicate, using […] of each primer, on a QuantStudio 3 qPCR machine (Thermo Fisher). The housekeeping gene rho was used as an internal normalization control (37).

S. aureus viability = experiment: CARD1 toxicity assay (cfu enumeration); type: cell-based, Staphylococcus aureus
Method: To measure the effect of CARD1 activity on S. aureus viability over time, colonies of S. aureus harbouring pTarget and the specified pCRISPR were launched in liquid culture overnight in triplicate. The next day, cells were diluted 1:100 and grown out for about an hour, and normalized for OD. One aliquot was taken from each culture, and then aTc was added to induce CRISPR targeting and CARD1 activity (to a concentration of 3 ng/ml in FIG. 4c or 125 ng/ml in FIG. 5c). At each timepoint, cell aliquots were removed, centrifuged, resuspended in media lacking aTc, and serial dilutions were plated on solid BHI agar plates with or without aTc. All viable cells should grow on the solid agar plates, but only targeting escapers (cells that recover due to mutations in pTarget or pCRISPR) should form CFUs on plates with aTc.

[5] = tested on: ssRNA ladder, dsRNA ladder; experiment: Degradation of ssRNA or dsRNA ladders; type: biochemical; details: 15 minutes
Method: as §1

[6] = ORF9 and ORF27 transcripts targeted

B1: CARD1: cA4-activated ssDNA and ssRNA nuclease of Treponema succinifaciens, SEQ ID NO:1; N-terminal CARF domain, C-terminal REase domain (protein, listed as Treponema succinifaciens)
chain: MKETILVNLVSEQTIPNVQFIKWYFNKKQTPMKILLVSTKEMEQKEKSLFIKNALHFSDSFVEWETIHTDGNDISKTENILTDYFRDNEYKNIIVNITGGTKIMSLAAFDFFNNKPNTEIFYQPIGKELQELYPNKQKYDMFEVLSLKEYLDAHGISYKYDNECVKDWNYNKTVYDLCVADNRELIKGMIALQNNSYFNNVYKRKDFLDFTQIEEEKFIAINHPAATKENMIKILQIFGFDVSRIEHKHIRYITGGWFEEYVYQKICNEYHNVDEKNVALNVTIQKGNDKNELDVIYLDKDNKLHVIECKSFVDGNEGNRVLNDALYKLQAIIKSKFGLYVKQHLYTKSIIEKETPLNRAKEFGIDIKDGTQL
time after addition of the inducer at which pTarget was cleared (pTarget): 20 minutes | phage titer in cultures of cells that express Cas10^HD (phage Φ12γ3 [1]; [6]): reduce the phage titer | phage propagation (pfu) at different times after infection (phage Φ12γ3 [1]; ORF27 transcript of Φ12γ3 targeted): effectively eliminated Φ12γ3 from the culture | immunity in cells that express Cas10^HD (phage Φ12γ3 [2]; [6]): able to provide immunity | need of CARD1 nuclease activity for immunity, early target (phage Φ12γ3 [2]; early ORF9 transcript of Φ12γ3 targeted): not required for immunity | survival of cultures after infection, late target (phage Φ12γ3 [2]; late ORF27 transcript of Φ12γ3 targeted): able to survive infection | nuclease activity on ssDNA ([3]; ΦX174 and M13 ssDNA, smear of products): cA4-activated, non-specific ssDNA nuclease | cation requirement of ssDNA degradation ([3]; ΦX174 ssDNA, with or without MnCl2): required the addition of Mn cation | expression of recA, lexA, uvrA and umuC (SOS response), normalized against rho [4]: significant increase | fraction of colonies formed in the absence of aTc that come from bona fide dormant cells (S. aureus viability; compared with colonies resistant to aTc (escapers)): approximately half | colony counts (viable cells) after CARD1 induction (S. aureus viability; three hours of target transcription, plated on media lacking aTc): initial decrease in colony counts of an order of magnitude | degradation of single-stranded versus double-stranded RNA [5]: Single-stranded RNA, but not double-stranded RNA, was degraded

— patent US12655405B2, “Sequence specific degradation of single-stranded polynucleotides with CARD1 nuclease” (The Rockefeller University, priority 2020, dated 2026)
